Source: PMC6468871

Target: T1, RAD51 WT protein phosphorylated in vitro by c-MET kinase (human)
T1 chain: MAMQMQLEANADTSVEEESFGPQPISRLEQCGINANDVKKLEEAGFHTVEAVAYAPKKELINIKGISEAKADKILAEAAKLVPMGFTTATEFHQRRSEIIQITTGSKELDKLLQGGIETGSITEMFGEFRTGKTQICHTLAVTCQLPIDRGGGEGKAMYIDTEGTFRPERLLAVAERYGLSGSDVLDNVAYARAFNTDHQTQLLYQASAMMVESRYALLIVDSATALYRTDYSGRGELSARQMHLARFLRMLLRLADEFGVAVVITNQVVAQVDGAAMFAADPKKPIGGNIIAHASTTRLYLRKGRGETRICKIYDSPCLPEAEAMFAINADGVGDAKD
Assay: cross-linking; RAD51 10 uM with ATP 2 mM, with or without kinase-active c-MET (0.1 uM) and PHA665752 (1 uM); 20 mM BS3, room temperature, 30 min, stopped with Tris 1 M pH 8.0; SDS-PAGE 10% and western blot with anti-RAD51
Details: remark: other sources report otherwise

fold of multimer forms against non-phosphorylated RAD51: 1.6 fold
B1: RAD51 WT protein phosphorylated in vitro by c-MET kinase (natural protein)
chain: MAMQMQLEANADTSVEEESFGPQPISRLEQCGINANDVKKLEEAGFHTVEAVAYAPKKELINIKGISEAKADKILAEAAKLVPMGFTTATEFHQRRSEIIQITTGSKELDKLLQGGIETGSITEMFGEFRTGKTQICHTLAVTCQLPIDRGGGEGKAMYIDTEGTFRPERLLAVAERYGLSGSDVLDNVAYARAFNTDHQTQLLYQASAMMVESRYALLIVDSATALYRTDYSGRGELSARQMHLARFLRMLLRLADEFGVAVVITNQVVAQVDGAAMFAADPKKPIGGNIIAHASTTRLYLRKGRGETRICKIYDSPCLPEAEAMFAINADGVGDAKD
modifications: here or on the partner: phosphotyrosine at Y159, Y191, Y205 and Y315 (sites the paper concludes for c-MET; extent at each site not stated); phosphotyrosine at Y159, Y191, Y205 and Y315 (sites the paper concludes for c-MET; extent at each site not stated)
